Consider 4 substances from patent US10450368.

Assay [1] has as its target CH505.M7D8gp120/293F. Kind of assay: direct-binding ELISA. (In an ELISA, binding on a coated surface is turned into a signal by an enzyme label.)
Assay [2] has as its target CH505.TF mutant gp120 M6 (HIV-1). As to the kind of experiment: direct-binding ELISA.
The target of assay [3] is CH505.M21D8gp120/293F. As to the kind of experiment: direct-binding ELISA.
Assay [4] addresses CH505.M19D8gp120. As to the kind of experiment: direct-binding ELISA.
In assay [5] the target is CH505.TF mutant gp120 M8 (HIV-1). Kind of assay: direct-binding ELISA.
The target in assay [6] is CH505.M10D8gp120. As to the kind of experiment: direct-binding ELISA.
Assay [7] has as its target CH505.M11D8gp120/293F. Kind of assay: direct-binding ELISA.
The target of assay [8] is CH505.TF mutant gp120 M20 (HIV-1). As to the kind of experiment: direct-binding ELISA.
Assay [9] concerns the target CH505.M9D8gp120/293F. As to the kind of experiment: direct-binding ELISA.
Assay [10] concerns the target CH505.M5D8gp120293F. Kind of assay: direct-binding ELISA.
The target of assay [11] is HIV-1 CH505 transmitted/founder gp120 Env (HIV-1). As to the kind of experiment: SPR, antibody captured on anti-human Ig Fc, gp120 injected. (In general: Surface plasmon resonance follows binding to a sensor surface in real time, without labels.)
For assay [12], the target named is CH505.w30.12D8gp120. Kind of assay: ELISA.
Assay [13] addresses CH0505_CON D7gp120/293i. Kind of assay: ELISA.
For assay [14], the target named is CH505w030.20D8gp120/293F. Kind of assay: ELISA.
The target in assay [15] is CH505w136.B18D8gp120. As to the kind of experiment: ELISA.
The target in assay [16] is CH505w020.14D8gp120. Kind of assay: ELISA.
The target in assay [17] is Sm (Smith antigen). Kind of assay: AtheNA, Ab 12.5 ug/ml.
The target of assay [18] is SSA. As to the kind of experiment: AtheNA, Ab 12.5 ug/ml.
The target in assay [19] is Jo-1 (UniProt P12081). Kind of assay: AtheNA, Ab 12.5 ug/ml.
Sequence of Jo-1 (P12081 whole entry): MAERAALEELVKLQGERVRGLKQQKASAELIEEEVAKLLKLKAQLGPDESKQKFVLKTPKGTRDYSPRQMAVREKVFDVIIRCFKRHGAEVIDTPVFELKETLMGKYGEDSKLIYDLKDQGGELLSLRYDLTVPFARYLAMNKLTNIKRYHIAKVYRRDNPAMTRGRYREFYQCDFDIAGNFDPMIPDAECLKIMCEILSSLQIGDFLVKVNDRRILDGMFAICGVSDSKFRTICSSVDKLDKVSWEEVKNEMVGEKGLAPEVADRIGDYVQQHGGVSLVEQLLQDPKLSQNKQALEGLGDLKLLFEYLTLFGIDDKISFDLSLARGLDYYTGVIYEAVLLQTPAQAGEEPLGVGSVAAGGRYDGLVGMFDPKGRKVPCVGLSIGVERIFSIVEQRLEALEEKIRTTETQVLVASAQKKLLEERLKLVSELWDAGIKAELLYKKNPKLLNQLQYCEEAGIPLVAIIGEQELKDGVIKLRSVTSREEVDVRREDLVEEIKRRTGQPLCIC
The target of assay [20] is Centromere B (UniProt P07199). Kind of assay: AtheNA, Ab 12.5 ug/ml.
Sequence of Centromere B (P07199 whole entry): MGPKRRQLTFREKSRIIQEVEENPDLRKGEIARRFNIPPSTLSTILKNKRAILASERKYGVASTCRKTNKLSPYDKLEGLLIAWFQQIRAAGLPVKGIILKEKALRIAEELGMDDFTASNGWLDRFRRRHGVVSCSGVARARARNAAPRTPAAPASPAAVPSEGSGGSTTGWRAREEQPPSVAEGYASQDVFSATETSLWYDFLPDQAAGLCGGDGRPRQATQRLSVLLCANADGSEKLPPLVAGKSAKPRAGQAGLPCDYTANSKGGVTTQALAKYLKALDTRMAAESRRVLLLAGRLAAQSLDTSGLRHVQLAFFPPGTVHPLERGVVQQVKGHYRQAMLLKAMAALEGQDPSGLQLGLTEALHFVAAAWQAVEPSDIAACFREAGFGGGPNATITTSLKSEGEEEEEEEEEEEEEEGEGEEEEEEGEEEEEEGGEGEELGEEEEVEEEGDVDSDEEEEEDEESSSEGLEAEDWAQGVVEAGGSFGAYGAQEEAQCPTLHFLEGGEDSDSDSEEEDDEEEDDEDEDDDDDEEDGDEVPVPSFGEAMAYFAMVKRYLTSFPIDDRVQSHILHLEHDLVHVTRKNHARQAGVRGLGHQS
Assay [21] has as its target Histones. As to the kind of experiment: AtheNA, Ab 12.5 ug/ml.
Assay [22] concerns the target Scl-70 (UniProt P11387). As to the kind of experiment: AtheNA, Ab 12.5 ug/ml.
For assay [23], the target named is RNP (ribonucleoprotein). Kind of assay: AtheNA, Ab 12.5 ug/ml.
The target in assay [24] is SSB (UniProt P05455). Kind of assay: AtheNA, Ab 12.5 ug/ml.
Sequence of SSB (P05455 whole entry): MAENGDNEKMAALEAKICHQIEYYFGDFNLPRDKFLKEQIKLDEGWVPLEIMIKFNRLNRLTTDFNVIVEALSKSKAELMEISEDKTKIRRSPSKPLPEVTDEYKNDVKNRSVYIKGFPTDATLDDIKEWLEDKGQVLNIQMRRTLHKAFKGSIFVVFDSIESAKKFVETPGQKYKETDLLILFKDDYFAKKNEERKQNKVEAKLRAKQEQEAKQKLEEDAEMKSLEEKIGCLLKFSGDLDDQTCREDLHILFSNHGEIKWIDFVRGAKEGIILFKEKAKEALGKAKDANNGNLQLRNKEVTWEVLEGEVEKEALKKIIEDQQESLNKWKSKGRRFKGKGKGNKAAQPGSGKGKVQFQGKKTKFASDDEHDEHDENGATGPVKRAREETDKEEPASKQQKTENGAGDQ
In assay [25] the target is Sm (Smith antigen). Kind of assay: AtheNA, Ab 6.25 ug/ml.
Assay [26] concerns the target SSA. As to the kind of experiment: AtheNA, Ab 6.25 ug/ml.
Assay [27] has as its target Jo-1 (UniProt P12081). As to the kind of experiment: AtheNA, Ab 6.25 ug/ml.
Assay [28] has as its target Centromere B (UniProt P07199). Kind of assay: AtheNA, Ab 6.25 ug/ml.
Assay [29] concerns the target Histones. As to the kind of experiment: AtheNA, Ab 6.25 ug/ml.
Assay [30] addresses Scl-70 (UniProt P11387). Kind of assay: AtheNA, Ab 6.25 ug/ml.
The target in assay [31] is RNP (ribonucleoprotein). As to the kind of experiment: AtheNA, Ab 6.25 ug/ml.
For assay [32], the target named is SSB (UniProt P05455). As to the kind of experiment: AtheNA, Ab 6.25 ug/ml.
For assay [33], the target named is Sm (Smith antigen). Kind of assay: AtheNA, Ab 25 ug/ml.
Assay [34] has as its target SSA. As to the kind of experiment: AtheNA, Ab 25 ug/ml.
Assay [35] deals with Jo-1 (UniProt P12081). Kind of assay: AtheNA, Ab 25 ug/ml.
Assay [36] addresses Centromere B (UniProt P07199). As to the kind of experiment: AtheNA, Ab 25 ug/ml.
The target in assay [37] is Histones. Kind of assay: AtheNA, Ab 25 ug/ml.
The target in assay [38] is Scl-70 (UniProt P11387). As to the kind of experiment: AtheNA, Ab 25 ug/ml.
Sequence of Scl-70 (P11387 whole entry): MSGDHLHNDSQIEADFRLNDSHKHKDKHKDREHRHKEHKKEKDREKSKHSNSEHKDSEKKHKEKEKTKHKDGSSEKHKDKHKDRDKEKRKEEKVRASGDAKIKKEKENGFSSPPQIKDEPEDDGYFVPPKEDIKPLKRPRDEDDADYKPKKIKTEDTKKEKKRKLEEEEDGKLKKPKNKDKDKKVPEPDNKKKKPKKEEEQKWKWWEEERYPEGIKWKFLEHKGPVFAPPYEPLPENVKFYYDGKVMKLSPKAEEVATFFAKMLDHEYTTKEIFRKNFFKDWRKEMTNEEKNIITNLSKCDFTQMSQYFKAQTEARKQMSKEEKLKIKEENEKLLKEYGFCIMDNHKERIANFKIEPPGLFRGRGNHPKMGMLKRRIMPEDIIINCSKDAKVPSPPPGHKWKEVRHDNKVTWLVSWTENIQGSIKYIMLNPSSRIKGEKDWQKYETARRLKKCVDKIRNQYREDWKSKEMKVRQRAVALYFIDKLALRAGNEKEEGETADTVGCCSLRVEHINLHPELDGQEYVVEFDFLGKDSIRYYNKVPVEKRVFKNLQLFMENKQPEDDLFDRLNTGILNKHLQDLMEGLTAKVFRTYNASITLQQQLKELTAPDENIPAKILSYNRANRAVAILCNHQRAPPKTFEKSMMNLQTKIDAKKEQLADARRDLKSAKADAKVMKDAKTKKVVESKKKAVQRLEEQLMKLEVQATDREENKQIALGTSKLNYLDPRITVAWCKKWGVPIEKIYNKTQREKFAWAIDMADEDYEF
Assay [39] addresses RNP (ribonucleoprotein). As to the kind of experiment: AtheNA, Ab 25 ug/ml.
Assay [40] deals with SSB (UniProt P05455). As to the kind of experiment: AtheNA, Ab 25 ug/ml.

As to CH104 (antibody), the LogAUC in [1] turned out to be 9.73; in assay [2], 11.6; in assay [3], 11.2; in [4], 11.3; in assay [5], 10.1; in assay [6] it was 11.7. Moreover, the LogAUC in assay [7] was 12; in assay [8], 10.8; in assay [9], 10.8; in assay [10], 9.02.

CH103 UCA (antibody): the dissociation constant (Kd) – broadly, a measure of binding affinity in units of concentration – in assay [11] was determined as 227 nM. In [11], the kon (in general, the second-order rate constant of association) is 37000 M⁻¹ s⁻¹. Also, the LogAUC in [1] was determined as 0.44; in assay [2] it was 5.23; in assay [3], 0; in assay [4], 1.74; in [5] it was 0; in [6], 1.35. Further, the LogAUC in assay [7] was found to be 2.62; in [8], 0; in assay [9], 0.12; in [10] it was 0; in [12], 0; in assay [13], 4.3. For the same substance, the LogAUC in [14] was determined as 0; in [15], 0; in assay [16] it was 0.33.

Turning to CH235UA/293i (antibody), the AtheNA signal (relative luminescence units) in assay [17] was determined as 6; in assay [18], 9; in assay [19] it was 5; in assay [20], 3; in assay [21], 4; in assay [22] it was 3. Besides, the AtheNA signal (relative luminescence units) in [23] worked out at 3; in [24], 4; in assay [25] it was 5; in [26] it was 10; in assay [27] it was 3; in assay [28], 2. The AtheNA signal (relative luminescence units) in assay [29] was 2; in assay [30] it was 3; in assay [31] it was 2; in assay [32], 5; in assay [33], 6; in assay [34], 9. Further, the AtheNA signal (relative luminescence units) is 5 in assay [35]; 3 in assay [36]; 3 in assay [37]; 3 in assay [38]; 4 in assay [39]; 3 in [40].

With CH103 (antibody), the LogAUC was 11.1 in assay [1]; 13.1 in assay [2]; 11.4 in assay [3]; 13.3 in assay [4]; 11.5 in assay [5]; 13.2 in [6]. The LogAUC in [7] turned out to be 13.4; in assay [8], 12.2; in [9] it was 11.6; in assay [10] it was 9.84.
